Columns and labels:
[1] = biological target: T1, human CD3e (T-cell surface glycoprotein CD3 epsilon chain) (human, UniProt P07766 23-207); assay: flow cytometry, human PBMC, antibody 0.1 ug/mL, anti-human IgG Fc-Alexa Fluor647 (1:500), anti-hTcRβ-PerCP (1:30)
T1 construct: Target of the anti-hCD3e antibodies on human PBMC, Jurkat cells and cells expressing human CD3e; on T cells it is part of the CD3/TCR complex; also called hCD3e; CD3e on human PBMC
Protocol: (§1) PBMC cells were collected from a human subject. After being thawed, the cells were cultured for 3-4 hours. The medium was then discarded, and the cells were resuspended in phosphate-buffered saline (PBS). The cell concentration was then adjusted to 2×10⁶/25 μl PBS.
(§2) A 96-well plate was prepared. 25 ul of cell suspension was added to each well. […] The cells and the antibodies were incubated. After centrifuge, the residues were discarded. The samples were washed again. 25 ul of PBS was then added to each well to resuspend cells.
(§3) Anti-human IgG Fc-Alexa Fluror647 (1:500) and anit-hTcRβ PerCP (1:30) were then added to each well. The cells and the antibodies were incubated and then the cells were washed again by PBS. 300 ul of PBS was then added to each well to resuspend the cells. FACS was performed.

[2] = biological target: T1, human CD3e (T-cell surface glycoprotein …); assay: cell-based or functional assay
[3] = biological target: T2, Histidine-tagged human CD3e protein (human, UniProt P07766 23-126); assay: SPR (Biacore), human CD3e
T2 construct: also called hCD3e-His; not shown: His tag

[4] = biological target: T3, Cynomolgus CD3 epsilon Protein, His Tag (Acrobiosystems, Cat #CDE-05226) (cynomolgus (Macaca fascicularis), UniProt Q95LI5 22-117); assay: SPR (Biacore), cynomolgus CD3e His tag
T3 construct: also called monkey CD3e; not shown: His tag
T3 sequence: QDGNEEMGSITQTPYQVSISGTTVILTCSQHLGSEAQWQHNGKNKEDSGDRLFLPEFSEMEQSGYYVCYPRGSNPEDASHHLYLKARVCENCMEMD
Protocol: The binding affinity of the anti-hCD3e antibodies with monkey CD3e (Cynomolgus CD3 epsilon Protein (SEQ ID NO: 39 AA Gln 22-Asp 117), His Tag, Acrobiosystems, Cat #CDE-05226) were also measured using surface plasmon resonance (SPR) using Biacore (Biacore, INC, Piscataway N.J.) by the methods as described in the examples.

[5] = biological target: T1, human CD3e (T-cell surface glycoprotein …); assay: flow cytometry, human PBMC, antibody 0.01 ug/mL, anti-human IgG Fc-Alexa Fluor647 (1:500), anti-hTcRβ-PerCP (1:30)
Protocol: as §1, §2, §3

[6] = biological target: T1, human CD3e (T-cell surface glycoprotein …); assay: flow cytometry, human PBMC, antibody 1 ug/mL, anti-human IgG Fc-Alexa Fluor647 (1:500), anti-hTcRβ-PerCP (1:30)
Protocol: as §1, §2, §3

[7] = biological target: T4, monkey CD3e (Macaca fascicularis) on PBMC (Macaca fascicularis, UniProt Q95LI5 22-198); assay: flow cytometry, Macaca fascicularis PBMC, antibody concentration not given, anti-human IgG Fc-Alexa Fluor647 (1:500), anti-hTcRβ-PerCP (1:30)
T4 construct: Target on PBMC from Macaca fascicularis; also called mfCD3e; monkey PBMC
Protocol: A 96-well plate was prepared. 25 ul of cell suspension was added to each well. Anti-hCD3 antibodies were added to the 96-well plate. The cells and the antibodies were incubated for 15 minutes at 4° C. 185 ul PBS was then added to each well. After centrifuge at 2000 rpm for 5 minutes, the medium was discarded. The samples were washed again. 25 ul of PBS was then added to resuspend cells.
Anti-human IgG Fc-Alexa Fluror647 (1:500) and anti-hTcRβ PerCP (1:30) were then added to each well. The cells and the antibodies were incubated for 15 minutes at 4° C. 185 ul PBS was then added to each well. After centrifuge, the residues were discarded. The samples were washed again. 25 ul of PBS was then added to resuspend cells. […] In contrast, anti-hTcRβ PerCP cannot bind to monkey PBMC.

Row | Binder | upper left quadrant, percent of cells AF647+ / hTcRβ-PerCP- [1] | upper right quadrant, percent of cells AF647+ / hTcRβ-PerCP+ [1] | EC50, luciferase of Jurkat-Luc-NFAT cells; antibody from supernatant [2] | EC50, luciferase of Jurkat-Luc-NFAT cells; purified antibody [2] | Kd [3] | koff [3] | kon [3] | Kd [4] | koff [4] | kon [4] | upper left quadrant, percent of cells AF647+ / hTcRβ-PerCP- [5] | upper right quadrant, percent of cells AF647+ / hTcRβ-PerCP+ [5] | upper left quadrant, percent of cells AF647+ / hTcRβ-PerCP- [6] | upper right quadrant, percent of cells AF647+ / hTcRβ-PerCP+ [6] | upper left quadrant, percent of cells AF647+ / hTcRβ-PerCP- [7] | upper right quadrant, percent of cells AF647+ / hTcRβ-PerCP+ [7]
1 | 10A4-H1K1-IgG1-LALA (antibody, V domains shown, Humanized; human IgG1 with LALA mutations; also called H1K1 (humanized 10A4)) VH: QVQLVQSGAEVKKPGASVKVSCKASGYTFTSYYIHWVRQAPGQRLEFIGWIYPGNVNAKYNEKFKGRVTITTDKSASTAYMELSSLRSEDTAVYYCAIKGGNYDWGQGTLVTVSS VL: DVVMTQSPLSLPVTLGQPASISCQSSQSLLDSDGKTYLNWLQQRPGQSPRRLIYLVSKLGSGVPDRFSGSGSGTDFTLKISRVEAEDVGVYYCWQGTHFPRTFGGGTKVEIK | 9.8% | 50.7% | 0.294 µg/mL | 0.524 µg/mL | 1.86 nM | 0.000105 s⁻¹ | 56300 M⁻¹ s⁻¹ | 13.2 nM | 0.000597 s⁻¹ | 45200 M⁻¹ s⁻¹ | 2.69% | 10.8% | 11.9% | 77.6% | 48.4% | 2.33%
2 | 10A4-H4K3-IgG1-LALA (antibody, V domains shown, Humanized; human IgG1 with LALA mutations; also called H4K3 (humanized 10A4)) VH: QVQLQQSGAEVKKPGASVRISCKASGYTFTSYYIHWVRQRPGQGLEFIGWIYPGNVNAKYNEKFKGRATLTTDKSASTAYMELSSLRSEDTAVYFCAIKGGNYDWGQGTLVTVSS VL: not shown | 11% | 54.4% | 0.477 µg/mL | – | 1.05 nM | 6.33e-05 s⁻¹ | 60300 M⁻¹ s⁻¹ | – | – | – | 2.68% | 12.5% | 11.5% | 76.6% | 82.7% | 0.225%
3 | 10A4-H1K3-IgG1-LALA (antibody, V domains shown, Humanized; human IgG1 with LALA mutations; also called H1K3 (humanized 10A4)) VH: QVQLVQSGAEVKKPGASVKVSCKASGYTFTSYYIHWVRQAPGQRLEFIGWIYPGNVNAKYNEKFKGRVTITTDKSASTAYMELSSLRSEDTAVYYCAIKGGNYDWGQGTLVTVSS VL: not shown | 10.2% | 56.2% | 0.393 µg/mL | 0.583 µg/mL | 2.21 nM | 0.000133 s⁻¹ | 60200 M⁻¹ s⁻¹ | 11.8 nM | 0.000508 s⁻¹ | 43100 M⁻¹ s⁻¹ | 2.67% | 16.6% | 11% | 79.2% | 46% | 1.54%
4 | 10A4-H4K1-IgG1-LALA (antibody, V domains shown, Humanized; human IgG1 with LALA mutations; also called H4K1 (humanized 10A4)) VH: QVQLQQSGAEVKKPGASVRISCKASGYTFTSYYIHWVRQRPGQGLEFIGWIYPGNVNAKYNEKFKGRATLTTDKSASTAYMELSSLRSEDTAVYFCAIKGGNYDWGQGTLVTVSS VL: DVVMTQSPLSLPVTLGQPASISCQSSQSLLDSDGKTYLNWLQQRPGQSPRRLIYLVSKLGSGVPDRFSGSGSGTDFTLKISRVEAEDVGVYYCWQGTHFPRTFGGGTKVEIK | 9.91% | 51.2% | 0.234 µg/mL | – | 1.31 nM | 8.91e-05 s⁻¹ | 68100 M⁻¹ s⁻¹ | – | – | – | 2.56% | 12% | 12.4% | 76.8% | 68.5% | 3.45%
5 | 10A4-H4K2-IgG1-LALA (antibody, V domains shown, Humanized; human IgG1 with LALA mutations; also called H4K2 (humanized 10A4)) VH: QVQLQQSGAEVKKPGASVRISCKASGYTFTSYYIHWVRQRPGQGLEFIGWIYPGNVNAKYNEKFKGRATLTTDKSASTAYMELSSLRSEDTAVYFCAIKGGNYDWGQGTLVTVSS VL: DVVMTQSPLSLPVTLGQPASISCQSSQSLLDSDGKTYLNWLQQRPGQSPRRLIYLVSKLGSGVPDRFSGSGSGTDFTLKISRVEAEDVGVYYCWQGTHFPRTFGGGTKLEIK | 8.54% | 57.1% | 0.253 µg/mL | – | 1.6 nM | 0.000103 s⁻¹ | 64100 M⁻¹ s⁻¹ | – | – | – | 2.25% | 16% | 15% | 74.4% | 44.9% | 1.49%
6 | 10A4-H2K1-IgG1-LALA (antibody, V domains shown, Humanized; human IgG1 with LALA mutations; also called H2K1 (humanized 10A4)) VH: QVQLVQSGAEVKKPGASVKISCKASGYTFTSYYIHWVRQAPGQRLEFIGWIYPGNVNAKYNEKFKGRATITTDKSASTAYMELSSLRSEDTAVYYCAIKGGNYDWGQGTLVTVSS VL: DVVMTQSPLSLPVTLGQPASISCQSSQSLLDSDGKTYLNWLQQRPGQSPRRLIYLVSKLGSGVPDRFSGSGSGTDFTLKISRVEAEDVGVYYCWQGTHFPRTFGGGTKVEIK | 10.3% | 59.4% | 0.266 µg/mL | 0.313 µg/mL | 1.84 nM | 0.000111 s⁻¹ | 60500 M⁻¹ s⁻¹ | 4.66 nM | 0.000261 s⁻¹ | 55900 M⁻¹ s⁻¹ | 2.67% | 14.8% | 11.6% | 76.8% | 49.4% | 2.32%
